Tests used:
[1] = target: T1, I-OnuI (Ophiostoma novo-ulmi); test: structure; co-crystal structure at 2.4 A (PDB 3QQY); conditions: tags: GST fusion (pGEX-6P-3), tag removed by PreScission protease; label: 32P (radiolabeled) in EMSA and cleavage
T1 chain: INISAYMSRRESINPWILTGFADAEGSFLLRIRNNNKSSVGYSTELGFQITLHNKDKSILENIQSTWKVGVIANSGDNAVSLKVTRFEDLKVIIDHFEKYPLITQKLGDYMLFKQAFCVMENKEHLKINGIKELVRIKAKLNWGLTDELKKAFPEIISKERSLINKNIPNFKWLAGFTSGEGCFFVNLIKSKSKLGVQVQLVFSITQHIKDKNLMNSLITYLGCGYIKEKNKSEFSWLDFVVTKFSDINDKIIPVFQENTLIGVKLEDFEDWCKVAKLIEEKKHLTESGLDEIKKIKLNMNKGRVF

[2] = target: T2, I-LtrI (Leptographium truncatum, UniProt C7SWF3 C7SWF3:407-712); test: structure; co-crystal structure at 2.7 A (PDB 3R7P); conditions: overhang ends
T2 sequence: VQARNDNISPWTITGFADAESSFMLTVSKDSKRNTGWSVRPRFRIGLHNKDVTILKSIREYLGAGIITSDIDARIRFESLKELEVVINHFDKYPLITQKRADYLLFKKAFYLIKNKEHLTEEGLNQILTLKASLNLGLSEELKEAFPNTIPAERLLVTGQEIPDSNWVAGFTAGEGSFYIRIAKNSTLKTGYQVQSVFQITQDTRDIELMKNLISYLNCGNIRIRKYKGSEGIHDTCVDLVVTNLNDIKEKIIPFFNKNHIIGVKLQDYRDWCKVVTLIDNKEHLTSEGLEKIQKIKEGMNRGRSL
Experimental: To obtain I-LtrI-DNA co-crystals, the DNA oligonucleotides (5′-[…]-3′ (SEQ ID NO: 119) and 5′-[…]-3′ (SEQ ID NO:120)) were purchased from Integrated DNA Technologies ([…], standard desalting purification). The oligonucleotides were dissolved in TE buffer (10 mM Tris-HCl (pH 8.0) and 1 mM EDTA), and the complementary DNA strands were annealed by incubation at 95° C. for 10 min and slow cooling to 4° C. over a six hour period. […] The protein-DNA drops were mixed in a 1:1 volume ratio with a reservoir solution containing 100 mM Bis-Tris (pH 6.5), 200 mM magnesium chloride, and 20% (v/v) polyethylene glycol 3500 and equilibrated at 22° C. The crystals diffracted up to approximately 2.7 Å resolution at the ALS beamline 5.0.1. The data set was processed using HKL2000 package. The polyalanine model of I-OnuI/DNA complex (PDB ID: 3QQY) was used as a search model for molecular replacement. One copy of the search model was found and the structure was refined using REFMAC5. The final model was deposited in RCSB Protein Data Bank with ID code 3R7P.

| Binder | binding result [1] | binding result [2] |
| --- | --- | --- |
| I-OnuI wild-type target site (RPS3) (dsDNA) DNA 1: TTTCCACTTATTCAACCTTTTA DNA 2: TAAAAGGTTGAATAAGTGGAAA | binds |  |
| I-LtrI co-crystal duplex (dsDNA) DNA 1: GGTCTAAACGTCGTATAGGAGCATTTGG DNA 2: CAAATGCTCCTATACGACGTTTAGACCC |  | binds |
